Measured values: patent US20250304655A1

Biological target: human hemoglobin (HbA) (human) (UniProt P69905)
Test: cell-based or functional assay

Sequence of human hemoglobin (HbA) (human) (P69905 2-142 limits assumed, chain 1 of 2): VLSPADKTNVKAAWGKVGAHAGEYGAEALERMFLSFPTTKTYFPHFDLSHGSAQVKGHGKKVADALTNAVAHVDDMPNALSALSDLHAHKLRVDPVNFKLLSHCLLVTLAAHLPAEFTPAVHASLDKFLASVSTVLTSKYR
Sequence of human hemoglobin (HbA) (human) (P68871 2-147 limits assumed, chain 2 of 2, further chain): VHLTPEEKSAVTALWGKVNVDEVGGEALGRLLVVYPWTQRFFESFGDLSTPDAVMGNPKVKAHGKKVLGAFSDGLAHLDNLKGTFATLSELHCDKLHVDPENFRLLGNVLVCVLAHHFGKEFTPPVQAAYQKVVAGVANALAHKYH

**Q.** Which median relative relaxation does the source give for recHp1-1 here?
**A.** 83%
